Source: US11505576B2, “Polypeptides based on a scaffold” (AFFIBODY AB, priority 2018, dated 2022)
pKd: −log10 of the molar value.

Legend:
[1] = target: T1, IL-6 (Homo sapiens, UniProt P05231); assay: Kinetic analysis using surface plasmon resonance (Biacore T200), immobilized IL-6; format: binding
T1 construct: purchased R&D Systems 206-IL-200/CF
Protocol: (§1) Kinetic constants (ka and kd) and affinities (KD) were determined for His6-tagged Y variants using a Biacore T200 instrument (GE Healthcare). Target proteins C4, IL-6 and insulin, respectively, were immobilized in separate flow cells on the carboxylated dextran layer of different CM5 chip surfaces (GE Healthcare). Immobilization was performed using amine coupling chemistry according to the manufacturer's protocol and PBS pH 7.4 supplemented with 0.1 Tween20 (PBST 0.1%) as running buffer. The ligand immobilization levels on the surfaces were 3280-8830 RU for C4, 495-1184 RU for IL-6, and 270-282 RU for insulin. One flow cell surface on each chip was activated and deactivated for use as blank during analyte injections. In the kinetic experiment, PBST 0.1% was used as running buffer at a flow rate of 30 μl/min. The analytes, i.e. Y variants, were each diluted in PBST 0.1 buffer at concentrations of 1000, 500, 100, 50 and 10 nM and injected for 5 min, followed by dissociation in running buffer for 3 min. After dissociation, the surfaces were regenerated with one injection of 30 μl 10 mM HCl. Kinetic constants were calculated from the sensorgrams using the Langmuir 1:1 model of Biacore T200 Evaluation software 2.0 (GE Healthcare).
(§2) Produced Y variants were subjected to CD and SPR analyses according to the methods described in Example 1.
(§3) Produced Y variants were subjected to CD and SPR analyses according to the methods described in Example 1. In addition, CD spectra of selected IL-6 binding variants were also recorded at 60, 70, 80 and 90° C.
(§4) The Y variants were cloned, produced and characterized according to the general methods described in Example 1. Produced Y variants with point mutations were subjected to CD and SPR analyses as described in Example 1. In addition, CD spectra of the IL-6 binding variants were also recorded at 60, 70, 80 and 90° C.

[2] = Circular dichroism spectroscopy analysis (CD spectra, variable temperature measurement, refolding); format: physicochemical; conditions: for α-helical content / ability to fold into an α-helical structure: CD spectrum at 20° C.
In short: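 Y variants at 0.5 mg/ml in PBS were scanned from 250 to 195 nm at 20° C. in a 1 mm cell. Tm came from the 221 nm signal during heating from 20 to 90° C. at 5° C./min, and a second 20° C. spectrum after heating assessed refolding. Selected IL-6 binders were also recorded at 60, 70, 80 and 90° C.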

[3] = Fraction of soluble product on expression in E. coli, estimated from SDS-PAGE; format: physicochemical; conditions: MGSSHHHHHHGSS-[Y#####]-A; for Estimated soluble fraction: Table 7, Ylib002Naive.I selection; for Est soluble fraction: Table 9, mutation study 5
Protocol: E. coli T7E2 cells were transformed with plasmids containing the gene fragment of each respective Y variant. The resulting recombinant strains were generally cultivated in media supplemented with 50 μg/ml kanamycin at 30-37° C. in 50 ml scale using the EnPresso protocol (Enpresso GmbH). In order to induce protein expression, isopropyl-β-D-1-thiogalactopyranoside (IPTG) was added to a final concentration of 0.5 mM at an optical density at 600 nm (OD600) of approximately 10. After induction, the cultures were incubated for 16 h. The cells were harvested by centrifugation. Alternatively, the culture was performed at 37° C. in 980 ml of TSB-YE medium (tryptic soy broth 30 g/l supplemented with yeast extract 5 g/l) supplemented with 50 μg/ml kanamycin, and protein expression induced with 0.2 mM IPTG at OD600=2, followed by incubation for 5 h before harvesting of the cells by centrifugation. The total yield as well as the fraction of soluble and insoluble product of the respective Y variant was estimated based on SDS-PAGE analysis.

[4] = target: T2, insulin (Homo sapiens, UniProt P01308); assay: Kinetic analysis using surface plasmon resonance (Biacore T200), immobilized insulin; format: binding; conditions: Table 9, mutation study 5; MGSSHHHHHHGSS-[Y#####]-A
T2 construct: purchased Roche 1376497
Protocol: as §1, §2
The Y variants were cloned, produced and characterized according to the general methods described in Example 1. Produced Y variants with point mutations and/or N-terminal or C-terminal extensions were subjected to CD and SPR analyses as described in Example 1.
as §3, §4

[5] = Table 2, His6-tagged Y variant, MGSSHHHHHHGSS-[Y#####]-ASGSVD
[6] = Table 2, Ylib001Naive.I selection, MGSSHHHHHHGSS-[Y#####]-ASGSVD, 0.5 mg/ml in PBS, 221 nm, 20-90° C.
[7] = Table 7, MGSSHHHHHHGSS-[Y#####]-A
[8] = Table 9, mutation study 5, MGSSHHHHHHGSS-[Y#####]-A

T1 sequence (P05231 30-212): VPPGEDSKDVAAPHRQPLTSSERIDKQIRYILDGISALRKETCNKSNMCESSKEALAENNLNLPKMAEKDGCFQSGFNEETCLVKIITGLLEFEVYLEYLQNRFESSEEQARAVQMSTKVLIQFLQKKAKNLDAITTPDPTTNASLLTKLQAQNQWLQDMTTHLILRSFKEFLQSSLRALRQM
T2 sequence (P01308 25-54 limits assumed): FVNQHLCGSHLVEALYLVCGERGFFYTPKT
T2 sequence (P01308 90-110 limits assumed): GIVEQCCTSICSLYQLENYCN

Substance | pKd [1, 8] | ka [1, 8] | kd [1, 8] | pKd [4] | ka [4] | kd [4] | Est soluble fraction [3] | Tm [2, 8] | further results
Y00035: IL-6 binding Y variant from Ylib001Naive.I, SEQ ID NO:50 (LAEAKEAANAELDSYGVQANSIEAIEQGLFVEVVELLKELILAALP; Engineered IL-6 binding Y variant) |  |  |  |  |  |  |  |  | pKd [1, 5]: 6.44; α-helical content / ability to fold into an α-helical structure [2]: limited ability; Tm [2, 6]: 60 °C
Y00076: IL-6 binding Y variant from Ylib001Naive.I, SEQ ID NO:61 (LAEAKEAALAELDSKGIEEKSISEIEAGLWVEVVELLKESILAVLP; Engineered IL-6 binding Y variant) |  |  |  |  |  |  |  |  | pKd [1, 5]: 6.37; α-helical content / ability to fold into an α-helical structure [2]: limited ability; Tm [2, 6]: 47 °C
Y02374: IL-6 binding Y variant from Ylib002Naive.I, SEQ ID NO:72 (LAEAKEAAIAELDSKGVGAAEIKRIQAAELVEIVQLLKQAILAVLPA; Engineered IL-6 binding Y variant) |  |  |  |  |  |  |  |  | Estimated soluble fraction [3]: 100%; pKd [1, 7]: 6.92; ka [1, 7]: 14000 M⁻¹ s⁻¹; kd [1, 7]: 0.0017 s⁻¹
Y02415: IL-6 binding Y variant from Ylib002Naive.I, SEQ ID NO:74 (LAEAKEAAIAELDSKGVGAGDIKDIQDALLVEIVQLLKQAILAVLPA; Engineered IL-6 binding Y variant) |  |  |  |  |  |  |  |  | Estimated soluble fraction [3]: 100%; pKd [1, 7]: 6.80; ka [1, 7]: 9700 M⁻¹ s⁻¹; kd [1, 7]: 0.0015 s⁻¹
Y02447: IL-6 binding Y variant from Ylib002Naive.I, SEQ ID NO:76 (LAEAKEAAIAELDSKGVGAHGIKEIQDAILVEIVQLLKQAILAALPA; Engineered IL-6 binding Y variant) |  |  |  |  |  |  |  |  | Estimated soluble fraction [3]: 100%; pKd [1, 7]: 6.80; ka [1, 7]: 11000 M⁻¹ s⁻¹; kd [1, 7]: 0.0017 s⁻¹
Y02465: IL-6 binding Y variant from Ylib002Naive.I, SEQ ID NO:78 (LAEAKEAAIAELDSKGVGANHIKAIQHAQFVEIVQLLKQAILAVLPA; Engineered IL-6 binding Y variant) |  |  |  |  |  |  |  |  | Estimated soluble fraction [3]: 100%; pKd [1, 7]: 6.57; ka [1, 7]: 7500 M⁻¹ s⁻¹; kd [1, 7]: 0.0021 s⁻¹
Y02495: IL-6 binding Y variant from Ylib002Naive.I, SEQ ID NO:79 (LAEAKEAAIAELDSKGVGAEEIKEIQGAMLVEIVQLLKQAILAVLPA; Engineered IL-6 binding Y variant) |  |  |  |  |  |  |  |  | Estimated soluble fraction [3]: 100%; pKd [1, 7]: 6.62; ka [1, 7]: 7100 M⁻¹ s⁻¹; kd [1, 7]: 0.0017 s⁻¹
Y02697: IL-6 binding Y variant, Y02444 with I9L, SEQ ID NO:81 (LAEAKEAALAELDSKGVGAVEIKQIQEALLVEIVQLLKQAILAVLPA; Engineered IL-6 binding Y variant) | 6.82 | 50000 M⁻¹ s⁻¹ | 0.009 s⁻¹ |  |  |  | 100% |  | 
Y02700: IL-6 binding Y variant, Y02415 with I9L, SEQ ID NO:84 (LAEAKEAALAELDSKGVGAGDIKDIQDALLVEIVQLLKQAILAVLPA; Engineered IL-6 binding Y variant) | 7.21 | 46000 M⁻¹ s⁻¹ | 0.0025 s⁻¹ |  |  |  | 100% |  | 
Y02701: IL-6 binding Y variant, Y02415 with K15Y, SEQ ID NO:85 (LAEAKEAAIAELDSYGVGAGDIKDIQDALLVEIVQLLKQAILAVLPA; Engineered IL-6 binding Y variant) | 6.68 | 21000 M⁻¹ s⁻¹ | 0.0036 s⁻¹ |  |  |  | 100% |  | 
Y02713: insulin binding Y variant, Y00310 with K15Y, SEQ ID NO:153 (LAEAKEAAIAELDSYGVGAYQIKFIQIAHTVEEVQLMKQAILADLPA; Engineered insulin binding Y variant) |  |  |  | 6.72 | 110000 M⁻¹ s⁻¹ | 0.014 s⁻¹ | 100% | 51 °C | 

More lines, main results first:

pKd [1, 8] | ka [1, 8] | kd [1, 8] | pKd [4] | ka [4] | kd [4] | Substance | Est soluble fraction [3] | Tm [2, 8] | further results
6.92 | 28000 M⁻¹ s⁻¹ | 0.0033 s⁻¹ |  |  |  | Y02698: IL-6 binding Y variant, Y02444 with K15Y, SEQ ID NO:82 (LAEAKEAAIAELDSYGVGAVEIKQIQEALLVEIVQLLKQAILAVLPA; Engineered IL-6 binding Y variant) | 100% |  | 
6.70 | 19000 M⁻¹ s⁻¹ | 0.0029 s⁻¹ |  |  |  | Y02699: IL-6 binding Y variant, Y02444 with Q26E, SEQ ID NO:83 (LAEAKEAAIAELDSKGVGAVEIKQIEEALLVEIVQLLKQAILAVLPA; Engineered IL-6 binding Y variant) | 100% |  | 
6.36 | 16000 M⁻¹ s⁻¹ | 0.007 s⁻¹ |  |  |  | Y02702: IL-6 binding Y variant, Y02415 with Q26E, SEQ ID NO:86 (LAEAKEAAIAELDSKGVGAGDIKDIEDALLVEIVQLLKQAILAVLPA; Engineered IL-6 binding Y variant) | 100% |  | 
6.92 | 21000 M⁻¹ s⁻¹ | 0.0025 s⁻¹ |  |  |  | Y02703: IL-6 binding Y variant, Y02444 with K15Y Q26E, SEQ ID NO:87 (LAEAKEAAIAELDSYGVGAVEIKQIEEALLVEIVQLLKQAILAVLPA; Engineered IL-6 binding Y variant) | 100% |  | 
 |  |  | 7.27 | 1500 M⁻¹ s⁻¹ | 0.008 s⁻¹ | Y02711: insulin binding Y variant, Y00358 with Q26E, SEQ ID NO:151 (LAEAKEAAIAELDSKGVGAAKIKWIEDAKSVETVQFLKQAILAELPA; Engineered insulin binding Y variant) | 100% | 62 °C | 
 |  |  | 6.27 | 290000 M⁻¹ s⁻¹ | 0.16 s⁻¹ | Y02714: insulin binding Y variant, Y00310 with Q26E, SEQ ID NO:154 (LAEAKEAAIAELDSKGVGAYQIKFIEIAHTVEEVQLMKQAILADLPA; Engineered insulin binding Y variant) | 100% | 53 °C | 
 |  |  | 6.55 | 6700 M⁻¹ s⁻¹ | 0.0019 s⁻¹ | Y02715: insulin binding Y variant, Y00358 with K15Y Q26E, SEQ ID NO:155 (LAEAKEAAIAELDSYGVGAAKIKWIEDAKSVETVQFLKQAILAELPA; Engineered insulin binding Y variant) | 100% | 61 °C | 
 |  |  | 8.12 | 2.7e+07 M⁻¹ s⁻¹ | 0.21 s⁻¹ | Y02716: insulin binding Y variant, Y00301 with K15Y Q26E, SEQ ID NO:156 (LAEAKEAAIAELDSYGVGARQIKWIEQAKSVEVVQWLKQAILADLPA; Engineered insulin binding Y variant) | 100% | 58 °C | 
 |  |  | 6.21 | 33000 M⁻¹ s⁻¹ | 0.02 s⁻¹ | Y02717: insulin binding Y variant, Y00310 with K15Y Q26E, SEQ ID NO:157 (LAEAKEAAIAELDSYGVGAYQIKFIEIAHTVEEVQLMKQAILADLPA; Engineered insulin binding Y variant) | 100% | 52 °C | 
